Test results published in patent US20110135636A1 (SYMPHOGEN A S, published 2011).

Experiments:
[1] = target: T1, recombinant human EGFR extracellular domain with 6xHis (human, UniProt P00533 25-645); assay: SPR, EGFR ECD without competitor
T1 construct: In-house produced; also called 6xHis EGFR ECD; soluble human EGFR ECD; not shown: 6xHis tag
Protocol: SPR analysis was performed on a Biacore 3000 machine containing four flow cells. A CM5 Biacore chip was conjugated with 10,000 Resonance units (Ru) polyclonal anti-His antibody to flow cells 1-4 according to the manufacturer's instructions. […] Immediately after antigen injection the maximal binding of the Anti-EGFR mAb without competition was established in each flow cell during a reference run. Briefly 5 μl antibody at a concentration of 40 μg/ml was injected over all flow cells with captured EGFR followed by stripping of the antibody/antigen complex with a low pH acid wash (10 sec. contact time with 10 mM Glycine-HCl, pH2). After the determination of Anti-EGFR antibody maximal binding to each flow cell, a competition run was performed during the same Biacore cycle. Flow cells were first saturated with EGFR ECD antigen followed by injection of different reference antibodies or Anti-EGFR antibodies into separate flow cells using the same antigen saturating conditions as outlined above. This step was immediately followed by a second injection of Anti-EGFR antibody over the flow cell saturated with EGFR antigen and competition antibody to minimize the dissociation of either antigen or blocking antibody. Then the antibody/antigen complexes were stripped off with a low pH acid wash (10 sec. contact time with 10 mM Glycine-HCl, pH 2) and the whole cycle beginning with the reference run was repeated with a new Anti-EGFR antibody. The degree of inhibition of tested Anti-EGFR antibodies were determined by comparing the Ru max value of the individual Anti-EGFR antibody before and after competition by introduction of report points recorded two seconds before and after injection of each sample.

[2] = target: T2, full length human EGFR expressed on the cell surface (human, UniProt P00533 25-1210); assay: cell ELISA, IgG titrated on unfixed A431-NS cells after saturation with Fab 992; given as ED50
T2 construct: whole, on cells; also called EGFR on A431-NS cells; EGFR on HN5 cells
Protocol: (§1) Cell ELISA: The ELISA was performed essentially as described in example 15 with modifications. Cells were left unfixed to allow conformational EGFR flexibility after antibody additions. Briefly, 10,000 A431-NS cells were grown in 96 well ELISA plates containing DMEM with added 0.5% FCS and 1% P/S at 37° C., 5% CO₂ overnight. […] 25 μl DMEM containing 1% BSA was added to wells used for testing of IgG antibodies without added Fab fragments. […] Next, wells were washed four times with PBS and 50 μl of a secondary monoclonal Mouse-anti-Human (Fc specific) HRP conjugate diluted 1:5000 in DMEM containing 1% BSA was added and incubated on ice for 30 min. Finally wells were washed four times with PBS and plates developed by adding 50 μl/well TMB substrate and read at 620 nm every 5-15-30 min. After incubation with substrate the reaction was stopped by addition of 1 M H₂SO₄ and absorbance read at 450 nm. The functional affinity expressed as ED50 values were calculated by subtraction of the average background binding with secondary reagent only, followed by normalization of the binding curves by plotting % maximal binding relative to each antibody tested.
(§2) Investigations of antibody induced binding enhancements were determined by concurrent ELISA binding studies, employing same secondary antibody reagent and incubation times.

[3] = target: T2, full length human EGFR expressed on the …; assay: cell ELISA, IgG titrated on unfixed A431-NS cells after saturation with Fab 992 and Fab 1024; given as ED50
Protocol: as §1, §2

[4] = target: T2, full length human EGFR expressed on the …; assay: cell ELISA, IgG titrated on unfixed A431-NS cells after saturation with Fab 1024; given as ED50
Protocol: as §1, §2

[5] = target: T1, recombinant human EGFR extracellular …; assay: SPR (BIAcore 2000); IgG captured on anti-human Fc, soluble EGFR ECD injected; Scatchard analysis
Protocol: Kinetic analysis of the full length IgG antibodies of the invention was performed on a BIAcore 2000, employing an assay as described in (Canziani, Klakamp, et al. 2004, Anal. Biochem, 325:301-307) allowing measurement of monovalent affinities of whole IgG molecules against soluble antigen. […] The chip surface was regenerated in between cycles by stripping the captured antibody/antigen complexes with a 10 second injection of 100 mM H₃PO₄. […] The association rate constant (ka) and dissociation constant (kd) were evaluated globally from the generated sensograms with the BIA evaluation software 4.1 provided by the manufacturer.

[6] = target: T2, full length human EGFR expressed on the …; assay: FACS on CHO cells transfected with full length Human EGFR
Protocol: Bound antibody was detected with a PE labelled goat F(ab′)₂ anti-human IgG FC. Gating was performed on uniform cells (SCC/FCS properties) expressing EGFR. Binding is expressed as % maximal antibody binding at 1 nM concentration.
Briefly quantitative FACS analysis was performed on a BD FACS array Bioanalyzer System to determine the number of EGFR molecules expressed on the surface of CHO cells transfected with either Human or Cynomolgus full length EGFR. […] Antibodies were incubated with cells for 14 hours on a shaker, to promote full antigen saturation at all antibody concentrations tested, while FACS buffer was added 0.02% NaN₃ and temperature kept at 4° C. to prevent receptor internalization. After incubation, cells were pelleted at 1200 RPM for 5 min at 4° C. and resuspended in 200 ul FACS buffer. Next cells were stained with a secondary Goat F(ab′)₂ anti-Human IgG FcGamma PE diluted 1:500 and incubated for 30 min at 4° C. on a shaker. Finally cells were washed twice in FACS buffer and analyzed on a BD FACS array Bioanalyzer System with gating on EGFR expressing CHO cells displaying uniform forward/side scatter properties.

[7] = target: T3, wild type full length EGFR purified from A431 cells (human, UniProt P00533 25-1210); assay: EGF blocking ELISA on coated full length EGFR; blocked ligand biotinylated EGF
T3 construct: mature; Bought; coated on ELISA wells; also called full length EGFR receptor antigen; Sigma E3641
Protocol: The next morning wells were washed twice with PBS-T and blocked for one hour with 150 μl PBS-T-1% BSA at room temperature, followed by wash twice in PBS-T. Next 80 μl of serially diluted Anti-EGFR antibodies and control antibodies were added to wells and incubated 30 min at room temperature. […] Subsequently wells were washed five times with PBS-T, followed by incubation with 100 μl/well Streptavidin-HRP secondary reagent diluted 1:1000 in blocking buffer and incubation at room temperature for 30 min. Finally wells were washed five times with PBS-T and plates were developed by adding 100 μl/well TMB substrate and incubated for 60 min. After incubation the reaction was stopped by addition of 1 M H₂SO₄; 100 μl/well and plates were read at OD 450 nm.

Rumax reference cycle [1] [Ru]	EC50 (read off the curve) [6] [nM]	Binder	also measured
100	~0.01	antibody 1024 (antibody, human IgG1, kappa, V domains shown, Chimeric IgG1 kappa) VH: QVQLQQPGAELVEPGGSVKLSCKASGYTFTSHWMHWVKQRPGQGLEWIGEINPSSGRNNYNEKFKSKATLTVDKSSSTAYMQFSSLTSEDSAVYYCVRYYGYDEAMDYWGQGTSVTVSS VL: DIVMTQAAFSNPVTLGTSASISCRSSKSLLHSNGITYLYWYLQKPGQSPQLLIYQMSNLASGVPDRFSSSGSGTDFTLRISRVEAEDVGVYYCAQNLELPYTFGGGTKLEIKR	EC50 [2]: 0.9 nM
	~0.01	antibody 1320 (antibody, human IgG1, kappa, V domains shown, Chimeric IgG1 kappa) VH: QVQLQQPGAELVKPGASMKLSCKASGYTFTNYWMHWVKQRPGQGLEWIGEINPSNGRTNYNEKFKSKATLTVDKSSSTAYMQLSSLTSEDSGVYYCAKGGNYYDYDWDYWGQGTTLTVSS VL: DIQMTQTTSSLSASLGDRVTISCSASQDISNYLNWYQQKPDGTVKLLIYHTSTLHSGVPSRFSGSGSGTDYSLTISNLEPEDIATYYCQQYSKLPWTFGGGTKLEIKR	
157		antibody 1261 (antibody, human IgG1, kappa, V domains shown, Chimeric IgG1 kappa) VH: EVQLVESGGGLVKPGGSLKLSCAVSGFTFSSYVMSWVRQTPEKRLEWVATITSGGRNIYYLDSVKGRFTISRDNAKNTLYLQMSSLRSEDTAMYYCARHEDYRYDGYYAMDYWGQGTSVTVSS VL: QIVLTQSPAIMSASPGEKVTITCSASSSVSYMHWFQQKPGTSPKLWIYSTSNLASGVPARFSGSGSGTSYSLTISRMEAEDAATYYCQQRSSYPYTFGGGTKLELKR	

Continued, binder first:

Binder	Rumax reference cycle [1] [Ru]	EC50 (read off the curve) [6] [nM]	also measured
antibody 1347 (antibody, human IgG1, kappa, V domains shown, Chimeric IgG1 kappa) VH: QVQLKESGPGLVAPSQSLSITCTVSGFSLTGHGVNWVRQPPGKGLEWLGMIWGDGSTDYNSTLKSRLSISKDNSKSQVFLKMNSLQTDDTARYYCARGYGYLYYFDYWGQGTTLTVSS VL: ENVLTQSPAIMSASPGEKVTMTCRASSSVSSSYLHWYQQKSGASPKLWIYSTSNLASGVPARFSGSGSGTSYSLTVNSVETEDAATYYCHQYSGFPFTFGSGTKLELKR	75		
antibody 1030 (antibody, human IgG1, kappa, V domains shown, Chimeric IgG1 kappa) VH: EVQLVESGGGLVKPGGSLKLSCAASGFTFSSYALSWVRQTPERRLEWVASISGVGSTYFPDSVKGRFTMSRDNARNILYLQMSSLRSEDTAMYYCARGSDGYFYAMDYWGQGTSVTVSS VL: DIVLTQSPASLAVSLGQRATISCRASKSVSTSGYSFMHWYQLKPGQPPKLLIYLASNLESGVPARFSGSGSGTDFTLNIHPVEEEDAATYYCQHSREFPLTFGGGTKLEIKR			EC50 [2]: 1.6 nM; EC50 [3]: 2.2 nM
antibody 992 (antibody, human IgG1, kappa, V domains shown, Chimeric mouse/human IgG1 kappa; the VL entry includes the human kappa constant region) VH: EVQLQQPGSELVRPGASVKLSCKASGYTFTSYWMHWVKQRPGQGLEWIGNIYPGSRSTNYDEKFKSKATLTVDTSSSTAYMQLSSLTSEDSAVYYCTRNGDYYVSSGDAMDYWGQGTSVTVSS VL: DIQMTQTTSSLSASLGDRVTISCRTSQDIGNYLNWYQQKPDGTVKLLIYYTSRLHSGVPSRFSGSGSGTDFSLTINNVEQEDVATYFCQHYNTVPPTFGGGTKLEIKR	81	~0.01	EC50 [4]: 0.5 nM; Kd [5]: 170 nM
antibody 1208 (antibody, human IgG1, kappa, V domains shown, Chimeric IgG1 kappa; also called clone 1208) VH: EVQLVESGGGLVKPGGSLKLSCAASGFAFSSYDMSWVRQTPEKRLEWVAYIGSGDDNTHYPDSVKGRFTISRHNAKNTLYLQMSSLKSEDTAMYYCARQKYGNYGDTMDYWGQGTSVTVSS VL: DVVMTQTPLSLPVSLGDQASISCRSSQSLVHSNGNTYLHWYLQKPGQSPKLLIYKVSNRFSGVPDRFSGSGSGTDFTLKISRVEAEDLGVYFCSQSTHVPTFGGGTKLEIKR			IC50 (read off the curve) [7]: ~20 ng mAb/ml
antibody 1260 (antibody, human IgG1, kappa, V domains shown, Chimeric IgG1 kappa) VH: QVQLKESGPGLVAPSQSLSITCTVSGFSLTTYGVHWVRQPPGKGLEWLGVIWAGGSTNYNSALMSRLSIKKDNSKSQVFLKMNSLQTDDTAMYYCARAYGYNFDYWGQGTTLTVSS VL: DIQMTQTTSSLSASLGDRVTISCSASQGITNYLNWYQQKPDGTVKLLIYYSSSLHSGVPSRFSGSGSGTDYSLTISNLEPEDIATYYCQQYSEIPYTFGGGTKLELKR			IC50 (read off the curve) [7]: ~50 ng mAb/ml
